Data from patent US20260158139A1, “CARD9 VARIANT POLYPEPTIDE AND ANTIBODIES DIRECTED THERETO” (The Broad Institute, Inc., priority 2023, published 2026).
Positions count from the first letter of the chain named.

Tests used:
[1] = system: T1, CARD9 S104N overexpressed in HEK 293T cells
T1 sequence (Q9H257 1-536 with S104N, species assumed, looked up): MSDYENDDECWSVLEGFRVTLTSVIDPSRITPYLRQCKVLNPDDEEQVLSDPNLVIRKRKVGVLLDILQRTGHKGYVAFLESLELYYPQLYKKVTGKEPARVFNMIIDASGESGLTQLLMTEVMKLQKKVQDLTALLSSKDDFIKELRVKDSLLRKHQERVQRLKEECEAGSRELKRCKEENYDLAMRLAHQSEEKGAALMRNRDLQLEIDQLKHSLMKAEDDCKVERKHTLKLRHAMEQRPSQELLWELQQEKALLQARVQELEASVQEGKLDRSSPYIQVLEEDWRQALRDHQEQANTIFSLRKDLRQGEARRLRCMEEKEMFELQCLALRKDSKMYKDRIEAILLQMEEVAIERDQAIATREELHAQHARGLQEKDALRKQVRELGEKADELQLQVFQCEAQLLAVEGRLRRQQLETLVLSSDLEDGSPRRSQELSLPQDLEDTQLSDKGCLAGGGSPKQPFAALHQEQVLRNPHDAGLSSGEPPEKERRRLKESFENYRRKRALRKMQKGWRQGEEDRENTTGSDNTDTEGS

[2] = system: T2, CARD9 FL overexpressed in HEK 293T cells
T2 sequence (Q9H257 1-536, species assumed, looked up): T1 sequence (Q9H257 1-536 with S104N, species assumed, looked up) with N104S

[3] = system: T3, CARD9 R101C overexpressed in HEK 293T cells
T3 sequence (Q9H257 1-536 with R101C, species assumed, looked up): T1 sequence (Q9H257 1-536 with S104N, species assumed, looked up) with R101C, N104S

purified PKCδ (Promega PKCδ Kinase Enzyme System #V3401)
in vitro phosphorylation assay (western blot) [1]: this phosphorylation requires an intact RXXS motif in the linker domain | in vitro phosphorylation assay (western blot) [2]: PKCd does indeed phosphorylate S104 | in vitro phosphorylation assay (western blot) [3]: this phosphorylation requires an intact RXXS motif in the linker domain
